These results are taken from article PMC11404569, “ECT2 peptide sequences outside the YTH domain regulate its m6A-RNA binding”.

Common to all, as to details: protein: recombinant; tags: N-terminal His-SUMO; label: 5' FAM
The target in one data set is T1, ECT2-Δα0 (Arabidopsis thaliana, UniProt Q9LJE5 1-667, del419-427).
T1 sequence: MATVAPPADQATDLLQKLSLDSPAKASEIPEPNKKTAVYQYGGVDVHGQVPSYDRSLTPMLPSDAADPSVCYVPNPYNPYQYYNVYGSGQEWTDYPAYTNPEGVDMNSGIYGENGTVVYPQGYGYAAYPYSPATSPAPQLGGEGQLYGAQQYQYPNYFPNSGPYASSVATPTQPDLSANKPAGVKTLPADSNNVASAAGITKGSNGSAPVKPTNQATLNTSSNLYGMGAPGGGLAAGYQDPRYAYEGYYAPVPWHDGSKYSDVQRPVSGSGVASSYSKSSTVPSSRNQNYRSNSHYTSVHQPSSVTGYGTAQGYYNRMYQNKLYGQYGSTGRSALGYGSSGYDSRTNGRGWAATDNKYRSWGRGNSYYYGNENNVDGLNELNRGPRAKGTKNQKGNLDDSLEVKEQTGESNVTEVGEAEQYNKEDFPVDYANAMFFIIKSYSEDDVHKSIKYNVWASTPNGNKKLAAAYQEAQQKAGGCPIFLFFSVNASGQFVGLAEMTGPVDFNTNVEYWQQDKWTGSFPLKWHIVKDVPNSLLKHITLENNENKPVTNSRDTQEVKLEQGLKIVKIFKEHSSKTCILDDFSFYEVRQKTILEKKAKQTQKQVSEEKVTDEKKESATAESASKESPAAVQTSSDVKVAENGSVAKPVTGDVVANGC
In words: EMSA; close to full length, doublet kept; EMSA: 10 nM FAM-RNA; binding buffer 10 mM HEPES pH 8.0, 50 mM KCl, 1 mM EDTA, 0.05% Triton X-100, 5% glycerol, 10 µg/mL salmon DNA, 1 mM DTT, 40 U/mL RNasin; 20 min on ice; native 8% acrylamide TBE gel at 4°C. (Mobility shift assays separate free from complexed probe on a gel.)

The target in another data set is T2, ECT2-303 YTH mut (Arabidopsis thaliana, UniProt Q9LJE5 303-667, W464A;W521A;W526A).
T2 sequence: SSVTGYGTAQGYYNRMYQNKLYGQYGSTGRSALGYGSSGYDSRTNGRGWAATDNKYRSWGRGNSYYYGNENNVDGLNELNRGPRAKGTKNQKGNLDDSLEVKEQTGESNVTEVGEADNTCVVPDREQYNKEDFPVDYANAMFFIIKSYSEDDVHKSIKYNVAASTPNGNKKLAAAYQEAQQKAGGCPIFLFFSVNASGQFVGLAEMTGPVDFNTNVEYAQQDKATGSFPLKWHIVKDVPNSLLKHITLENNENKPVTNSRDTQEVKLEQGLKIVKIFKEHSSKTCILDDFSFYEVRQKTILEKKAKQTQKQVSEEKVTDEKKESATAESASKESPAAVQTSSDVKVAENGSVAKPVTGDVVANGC
Kind of data set: EMSA; up to 500 nM; EMSA: 10 nM FAM-RNA; binding buffer 10 mM HEPES pH 8.0, 50 mM KCl, 1 mM EDTA, 0.05% Triton X-100, 5% glycerol, 10 µg/mL salmon DNA, 1 mM DTT, 40 U/mL RNasin; 20 min on ice; native 8% acrylamide TBE gel at 4°C.

The target in a further data set is T3, ECT2-108 YTH mut (Arabidopsis thaliana, UniProt Q9LJE5 108-667, W464A;W521A;W526A).
T3 sequence: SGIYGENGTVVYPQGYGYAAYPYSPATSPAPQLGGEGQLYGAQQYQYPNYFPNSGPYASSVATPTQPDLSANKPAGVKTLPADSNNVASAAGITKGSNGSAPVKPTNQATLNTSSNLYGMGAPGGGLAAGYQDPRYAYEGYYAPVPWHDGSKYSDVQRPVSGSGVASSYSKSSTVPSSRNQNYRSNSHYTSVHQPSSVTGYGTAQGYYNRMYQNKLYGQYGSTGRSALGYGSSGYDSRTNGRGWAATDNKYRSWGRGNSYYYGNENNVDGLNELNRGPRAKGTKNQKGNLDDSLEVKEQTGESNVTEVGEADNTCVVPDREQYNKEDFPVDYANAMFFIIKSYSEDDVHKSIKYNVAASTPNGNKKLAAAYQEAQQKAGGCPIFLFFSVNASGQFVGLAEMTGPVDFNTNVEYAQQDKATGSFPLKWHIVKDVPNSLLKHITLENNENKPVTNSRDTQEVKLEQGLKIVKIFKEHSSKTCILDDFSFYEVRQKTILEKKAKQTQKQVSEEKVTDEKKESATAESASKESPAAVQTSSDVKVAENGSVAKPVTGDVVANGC
The data set is described as above.

The next data set deals with T4, ECT2-Fl mut (YTH mut) (Arabidopsis thaliana, UniProt Q9LJE5 1-667, W464A;W521A;W526A).
T4 sequence: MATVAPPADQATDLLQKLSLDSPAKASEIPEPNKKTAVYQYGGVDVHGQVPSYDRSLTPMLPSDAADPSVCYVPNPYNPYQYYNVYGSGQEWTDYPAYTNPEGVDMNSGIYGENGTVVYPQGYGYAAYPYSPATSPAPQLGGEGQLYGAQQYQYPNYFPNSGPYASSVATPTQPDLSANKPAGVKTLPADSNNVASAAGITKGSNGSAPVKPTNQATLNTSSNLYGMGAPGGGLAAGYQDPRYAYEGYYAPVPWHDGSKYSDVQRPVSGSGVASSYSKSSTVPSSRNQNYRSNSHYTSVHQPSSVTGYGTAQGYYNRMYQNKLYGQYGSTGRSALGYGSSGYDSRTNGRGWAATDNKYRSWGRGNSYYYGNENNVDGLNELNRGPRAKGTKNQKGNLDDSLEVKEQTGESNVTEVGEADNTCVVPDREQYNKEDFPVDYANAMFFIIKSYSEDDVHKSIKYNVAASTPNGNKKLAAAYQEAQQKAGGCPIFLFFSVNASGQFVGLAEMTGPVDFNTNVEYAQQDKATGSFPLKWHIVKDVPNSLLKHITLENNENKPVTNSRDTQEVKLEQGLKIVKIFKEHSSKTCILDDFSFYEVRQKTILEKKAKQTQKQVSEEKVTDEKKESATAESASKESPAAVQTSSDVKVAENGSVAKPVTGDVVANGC
Kind of data set: EMSA; EMSA: 10 nM FAM-RNA; binding buffer 10 mM HEPES pH 8.0, 50 mM KCl, 1 mM EDTA, 0.05% Triton X-100, 5% glycerol, 10 µg/mL salmon DNA, 1 mM DTT, 40 U/mL RNasin; 20 min on ice; native 8% acrylamide TBE gel at 4°C.

For the molecule AUGGGCCGUUCAUCUGCUAAAAGGACUGCUUUUGGGGCUUGU (ssRNA, m6A at position 25; thiol-protected 3' bases (*G*U)) [Probe I m6A], the binding result with ECT2-Δα0 is given as “binds”; with ECT2-303 YTH mut, “no binding”; with ECT2-108 YTH mut, “no binding”; in the data set with ECT2-Fl mut (YTH mut), “no binding”.
